From patent US20150258192A1, “COMPOSITIONS AND METHODS FOR PREVENTING OR TREATING CHRONIC LUNG ALLOGRAFT DYSFUNCTION (CLAD) AND IDIOPATHIC PULMONARY FIBROSIS (IPF)” (priority 2014, published 2015)
No end group written: not given here.

How the values were obtained:
Assay in all cases: Kinase Profiling Assay
Format in all cases: biochemical
Conditions in all cases: peptide 100 μM
mTOR/FKBP12(h) = biological target: T1, mTOR/FKBP12(h) (Homo sapiens, UniProt P42345)
T1 construct: purchased Millipore
How it was run: (§1)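 Duplicate wells; [radiolabeled] ATP phosphate onto cationic substrate; filter capture (negatively charged membrane); scintillation count; % of 100% activity control. Selectivity screen of MK2 peptide inhibitors, 266 human kinases.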

GRK6(h) = biological target: T2, GRK6(h) (Homo sapiens, UniProt P43250)
T2 construct: purchased Millipore
How it was run: as §1

Ret(h) = Ret(h) (Homo sapiens, UniProt P07949)
How it was run: as §1

CaMKIδ(h) = CaMKIδ(h) (Homo sapiens, UniProt Q8IU85)
How it was run: as §1

MSK1(h) = biological target: T3, MSK1(h) (Homo sapiens, UniProt O75582)
T3 construct: purchased Millipore
How it was run: as §1

cSRC(h) = cSRC(h) (Homo sapiens, UniProt P12931)
How it was run: as §1

Src(T341M)(h) = biological target: T4, Src(T341M)(h) (Homo sapiens, UniProt P12931, T341M)
T4 construct: purchased Millipore
How it was run: as §1

Fes(h) = Fes(h) (Homo sapiens, UniProt P07332)
How it was run: as §1

mTOR(h) = biological target: T5, mTOR(h) (Homo sapiens, UniProt P42345)
T5 construct: purchased Millipore
How it was run: as §1

PhKγ2(h) = biological target: T6, PhKγ2(h) (Homo sapiens, UniProt P15735)
T6 sequence (P15735 1-406): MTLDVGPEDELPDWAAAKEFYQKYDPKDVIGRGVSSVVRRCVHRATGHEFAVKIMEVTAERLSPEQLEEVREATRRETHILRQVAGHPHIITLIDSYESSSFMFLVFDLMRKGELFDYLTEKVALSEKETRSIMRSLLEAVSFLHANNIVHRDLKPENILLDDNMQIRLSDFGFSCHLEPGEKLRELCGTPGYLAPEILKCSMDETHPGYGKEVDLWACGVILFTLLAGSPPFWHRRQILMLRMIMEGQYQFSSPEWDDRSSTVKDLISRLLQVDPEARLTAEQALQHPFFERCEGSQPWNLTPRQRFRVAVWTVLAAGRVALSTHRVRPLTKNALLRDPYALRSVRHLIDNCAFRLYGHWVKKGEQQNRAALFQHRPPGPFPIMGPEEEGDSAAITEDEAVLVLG
How it was run: as §1

SAPK2b(h) = biological target: T7, SAPK2b(h) (Homo sapiens, UniProt Q15759)
T7 construct: purchased Millipore
How it was run: as §1

FGFR3(h) = FGFR3(h) (Homo sapiens, UniProt P22607)
How it was run: as §1

Hck(h) activated = biological target: T8, Hck(h) activated (Homo sapiens, UniProt P08631)
T8 construct: purchased Millipore
How it was run: as §1

AMPKα2(h) = AMPKα2(h) (Homo sapiens, UniProt P54646)
How it was run: as §1

IR(h), activated = biological target: T9, IR(h), activated (Homo sapiens, UniProt P06213)
T9 construct: purchased Millipore
How it was run: as §1

MST2(h) = biological target: T10, MST2(h) (Homo sapiens, UniProt Q13188)
T10 construct: purchased Millipore
T10 sequence (Q13188 1-491): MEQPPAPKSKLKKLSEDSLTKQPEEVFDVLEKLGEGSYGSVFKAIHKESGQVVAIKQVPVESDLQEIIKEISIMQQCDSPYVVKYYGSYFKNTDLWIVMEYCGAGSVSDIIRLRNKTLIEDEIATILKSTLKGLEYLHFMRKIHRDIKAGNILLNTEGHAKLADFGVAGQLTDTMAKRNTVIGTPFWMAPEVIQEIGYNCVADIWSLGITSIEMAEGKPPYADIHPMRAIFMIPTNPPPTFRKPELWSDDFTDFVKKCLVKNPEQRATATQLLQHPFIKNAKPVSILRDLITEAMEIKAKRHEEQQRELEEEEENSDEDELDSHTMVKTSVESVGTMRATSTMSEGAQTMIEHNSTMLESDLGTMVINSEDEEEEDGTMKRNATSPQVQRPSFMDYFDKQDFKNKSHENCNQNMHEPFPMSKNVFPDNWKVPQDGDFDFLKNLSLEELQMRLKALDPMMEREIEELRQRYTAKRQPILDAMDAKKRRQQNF
How it was run: as §1

HIPK1(h) = biological target: T11, HIPK1(h) (Homo sapiens, UniProt Q86Z02)
T11 construct: purchased Millipore
How it was run: as §1

cKit(D816H)(h) = cKit(D816H)(h) (Homo sapiens, UniProt P10721, D816H)
How it was run: as §1

Abl(h) = Abl(h) (Homo sapiens, UniProt P00519)
How it was run: as §1

Chain of AMPKα2(h) (P54646 whole entry): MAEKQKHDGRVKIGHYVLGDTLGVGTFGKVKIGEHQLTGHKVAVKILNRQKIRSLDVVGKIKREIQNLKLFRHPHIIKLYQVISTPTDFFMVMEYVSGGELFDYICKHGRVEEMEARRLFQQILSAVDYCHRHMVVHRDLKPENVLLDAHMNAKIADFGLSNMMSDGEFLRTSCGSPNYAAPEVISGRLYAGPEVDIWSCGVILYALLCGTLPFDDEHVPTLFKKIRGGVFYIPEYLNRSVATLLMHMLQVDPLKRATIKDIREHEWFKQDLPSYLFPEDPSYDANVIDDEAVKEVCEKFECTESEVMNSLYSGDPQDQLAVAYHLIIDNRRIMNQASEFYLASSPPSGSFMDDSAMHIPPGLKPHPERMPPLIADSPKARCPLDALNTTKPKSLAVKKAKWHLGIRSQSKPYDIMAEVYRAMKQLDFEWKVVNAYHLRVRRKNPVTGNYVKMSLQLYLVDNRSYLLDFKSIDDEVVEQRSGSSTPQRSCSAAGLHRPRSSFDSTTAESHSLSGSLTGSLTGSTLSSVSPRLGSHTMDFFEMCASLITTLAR
Chain of AMPKα2(h) (Q9Y478 whole entry partner): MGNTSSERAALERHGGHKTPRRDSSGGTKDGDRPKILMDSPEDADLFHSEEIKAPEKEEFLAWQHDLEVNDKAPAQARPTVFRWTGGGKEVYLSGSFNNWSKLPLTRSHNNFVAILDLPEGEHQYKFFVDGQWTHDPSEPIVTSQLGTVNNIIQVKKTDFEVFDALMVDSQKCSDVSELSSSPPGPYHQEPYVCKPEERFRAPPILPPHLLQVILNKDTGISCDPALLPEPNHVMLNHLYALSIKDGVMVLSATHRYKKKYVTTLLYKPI
Chain of AMPKα2(h) (P54619 whole entry partner): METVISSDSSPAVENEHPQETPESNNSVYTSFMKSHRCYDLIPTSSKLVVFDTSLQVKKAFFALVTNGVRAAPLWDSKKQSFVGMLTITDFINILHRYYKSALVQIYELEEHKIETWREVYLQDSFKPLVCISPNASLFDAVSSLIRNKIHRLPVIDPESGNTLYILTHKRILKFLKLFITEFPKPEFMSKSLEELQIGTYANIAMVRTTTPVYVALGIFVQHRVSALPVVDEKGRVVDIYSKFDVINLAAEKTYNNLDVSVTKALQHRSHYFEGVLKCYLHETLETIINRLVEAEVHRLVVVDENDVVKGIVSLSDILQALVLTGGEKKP
Chain of Fes(h) (P07332 whole entry): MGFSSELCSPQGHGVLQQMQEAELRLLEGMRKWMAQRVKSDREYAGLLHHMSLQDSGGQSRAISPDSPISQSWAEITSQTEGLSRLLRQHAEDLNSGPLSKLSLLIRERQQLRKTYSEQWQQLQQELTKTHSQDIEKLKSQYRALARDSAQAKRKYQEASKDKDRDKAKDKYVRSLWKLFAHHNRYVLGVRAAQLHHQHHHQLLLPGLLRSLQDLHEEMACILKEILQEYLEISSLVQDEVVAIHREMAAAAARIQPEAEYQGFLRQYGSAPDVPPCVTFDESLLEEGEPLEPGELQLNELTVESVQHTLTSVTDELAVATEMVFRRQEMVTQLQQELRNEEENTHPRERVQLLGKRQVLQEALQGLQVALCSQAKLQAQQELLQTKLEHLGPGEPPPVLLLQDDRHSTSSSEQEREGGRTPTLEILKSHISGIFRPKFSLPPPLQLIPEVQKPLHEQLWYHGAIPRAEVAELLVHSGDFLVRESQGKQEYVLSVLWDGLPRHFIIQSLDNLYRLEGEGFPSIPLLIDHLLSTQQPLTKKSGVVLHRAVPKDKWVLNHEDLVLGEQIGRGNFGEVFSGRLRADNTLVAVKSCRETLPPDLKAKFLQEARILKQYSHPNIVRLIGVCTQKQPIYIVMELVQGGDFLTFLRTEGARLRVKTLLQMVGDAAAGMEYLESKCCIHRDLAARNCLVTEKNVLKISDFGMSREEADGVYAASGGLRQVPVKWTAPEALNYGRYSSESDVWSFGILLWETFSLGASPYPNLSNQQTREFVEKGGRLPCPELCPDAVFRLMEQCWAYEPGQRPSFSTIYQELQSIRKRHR
T7 sequence (Q15759 whole entry): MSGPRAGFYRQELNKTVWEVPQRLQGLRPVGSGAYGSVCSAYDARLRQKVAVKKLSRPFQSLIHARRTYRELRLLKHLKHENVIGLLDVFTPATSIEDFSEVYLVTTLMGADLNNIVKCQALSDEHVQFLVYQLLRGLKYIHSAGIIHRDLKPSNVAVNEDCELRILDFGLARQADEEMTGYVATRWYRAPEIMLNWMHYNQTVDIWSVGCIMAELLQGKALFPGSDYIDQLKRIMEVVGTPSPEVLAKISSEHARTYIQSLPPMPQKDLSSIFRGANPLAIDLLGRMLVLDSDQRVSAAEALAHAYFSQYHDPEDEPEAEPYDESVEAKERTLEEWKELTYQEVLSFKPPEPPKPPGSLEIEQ
T11 sequence (Q86Z02 whole entry): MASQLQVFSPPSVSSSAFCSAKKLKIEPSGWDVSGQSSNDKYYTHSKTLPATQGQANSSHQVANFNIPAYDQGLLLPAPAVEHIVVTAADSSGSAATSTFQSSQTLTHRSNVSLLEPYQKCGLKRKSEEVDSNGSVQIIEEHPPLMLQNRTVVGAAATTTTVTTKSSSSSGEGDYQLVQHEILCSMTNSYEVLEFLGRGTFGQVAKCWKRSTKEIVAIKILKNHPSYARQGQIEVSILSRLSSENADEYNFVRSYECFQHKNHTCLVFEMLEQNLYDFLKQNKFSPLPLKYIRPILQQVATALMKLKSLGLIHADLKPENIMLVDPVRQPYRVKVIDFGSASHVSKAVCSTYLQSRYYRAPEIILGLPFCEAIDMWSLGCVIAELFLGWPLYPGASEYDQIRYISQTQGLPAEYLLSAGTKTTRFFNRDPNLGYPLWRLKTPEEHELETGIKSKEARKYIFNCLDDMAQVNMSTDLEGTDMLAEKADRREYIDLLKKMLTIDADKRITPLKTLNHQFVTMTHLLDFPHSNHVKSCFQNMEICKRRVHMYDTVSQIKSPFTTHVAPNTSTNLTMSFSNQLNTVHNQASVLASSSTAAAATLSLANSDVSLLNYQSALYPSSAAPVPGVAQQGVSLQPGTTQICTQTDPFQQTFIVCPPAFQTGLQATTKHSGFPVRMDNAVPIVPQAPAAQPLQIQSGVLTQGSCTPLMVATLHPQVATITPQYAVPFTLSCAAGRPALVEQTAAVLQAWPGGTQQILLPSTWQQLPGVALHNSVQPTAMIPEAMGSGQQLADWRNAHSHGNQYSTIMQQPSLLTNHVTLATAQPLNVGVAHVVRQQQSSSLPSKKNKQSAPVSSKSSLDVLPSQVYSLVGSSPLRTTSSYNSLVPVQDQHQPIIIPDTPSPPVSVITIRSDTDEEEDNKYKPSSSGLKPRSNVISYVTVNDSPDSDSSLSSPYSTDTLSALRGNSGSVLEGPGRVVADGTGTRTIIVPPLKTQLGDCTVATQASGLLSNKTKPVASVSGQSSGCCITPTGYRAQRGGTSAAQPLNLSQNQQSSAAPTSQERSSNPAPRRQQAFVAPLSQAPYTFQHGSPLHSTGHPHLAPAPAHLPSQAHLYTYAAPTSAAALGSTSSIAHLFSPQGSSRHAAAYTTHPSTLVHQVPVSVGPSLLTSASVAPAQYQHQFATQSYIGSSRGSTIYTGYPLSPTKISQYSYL
Chain of Abl(h) (P00519 whole entry): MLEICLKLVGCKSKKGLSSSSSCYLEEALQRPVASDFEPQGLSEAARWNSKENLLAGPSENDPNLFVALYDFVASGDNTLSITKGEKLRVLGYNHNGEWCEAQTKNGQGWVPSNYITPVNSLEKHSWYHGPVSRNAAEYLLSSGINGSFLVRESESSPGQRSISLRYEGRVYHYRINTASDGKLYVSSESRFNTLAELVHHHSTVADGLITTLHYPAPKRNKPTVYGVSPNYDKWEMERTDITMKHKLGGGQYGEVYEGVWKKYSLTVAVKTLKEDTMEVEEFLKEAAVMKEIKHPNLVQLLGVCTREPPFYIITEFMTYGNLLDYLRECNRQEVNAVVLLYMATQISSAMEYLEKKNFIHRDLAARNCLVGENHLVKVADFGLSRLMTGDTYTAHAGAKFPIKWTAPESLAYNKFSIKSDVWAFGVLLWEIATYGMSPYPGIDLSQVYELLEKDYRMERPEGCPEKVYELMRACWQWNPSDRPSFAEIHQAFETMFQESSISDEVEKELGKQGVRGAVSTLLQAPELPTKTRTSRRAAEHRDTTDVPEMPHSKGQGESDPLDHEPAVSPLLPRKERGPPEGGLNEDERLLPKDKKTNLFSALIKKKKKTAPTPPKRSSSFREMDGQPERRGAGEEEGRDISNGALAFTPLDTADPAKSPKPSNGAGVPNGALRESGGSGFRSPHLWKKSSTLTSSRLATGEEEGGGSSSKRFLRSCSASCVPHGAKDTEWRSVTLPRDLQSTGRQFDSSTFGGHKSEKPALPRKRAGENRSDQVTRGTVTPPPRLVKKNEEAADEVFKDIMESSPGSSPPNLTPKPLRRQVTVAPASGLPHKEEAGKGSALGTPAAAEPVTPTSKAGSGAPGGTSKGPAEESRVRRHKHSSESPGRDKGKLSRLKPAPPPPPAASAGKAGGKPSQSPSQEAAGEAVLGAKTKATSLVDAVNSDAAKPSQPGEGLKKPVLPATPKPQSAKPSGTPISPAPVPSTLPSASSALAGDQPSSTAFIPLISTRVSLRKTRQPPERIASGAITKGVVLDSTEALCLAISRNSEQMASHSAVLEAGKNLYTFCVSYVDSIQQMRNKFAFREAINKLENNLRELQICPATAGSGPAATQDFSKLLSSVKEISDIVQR
T9 sequence (P06213 1005-1310 limits assumed): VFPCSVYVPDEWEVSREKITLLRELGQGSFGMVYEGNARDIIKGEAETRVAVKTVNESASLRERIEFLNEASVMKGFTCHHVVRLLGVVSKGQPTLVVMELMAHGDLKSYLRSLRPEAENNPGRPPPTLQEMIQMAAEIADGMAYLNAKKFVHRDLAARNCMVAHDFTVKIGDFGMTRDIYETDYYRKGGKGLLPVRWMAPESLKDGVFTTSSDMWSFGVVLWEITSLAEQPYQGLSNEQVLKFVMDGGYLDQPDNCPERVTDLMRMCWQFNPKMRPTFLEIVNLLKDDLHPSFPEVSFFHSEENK

| Sequence | % activity (mTOR/FKBP12(h)) [%] | % activity (GRK6(h)) [%] | % activity (Ret(h)) [%] | % activity (CaMKIδ(h)) [%] | % activity (MSK1(h)) [%] | % activity (cSRC(h)) [%] | % activity (Src(T341M)(h)) [%] | % activity (Fes(h)) [%] | % activity (mTOR(h)) [%] | % activity (PhKγ2(h)) [%] | % activity (SAPK2b(h)) [%] | % activity (FGFR3(h)) [%] | % activity (Hck(h) activated) [%] | % activity (AMPKα2(h)) [%] | % activity (IR(h), activated) [%] | % activity (MST2(h)) [%] | % activity (HIPK1(h)) [%] | % activity (cKit(D816H)(h)) [%] | % activity (Abl(h)) [%] |
| --- | --- | --- | --- | --- | --- | --- | --- | --- | --- | --- | --- | --- | --- | --- | --- | --- | --- | --- | --- |
| YARAAARQARAKALNRQLGVA (Mammal) [MMI-0200] | 118 | 132 | 96 | 47 | 50 | 32 | 56 | 74 | 110 | 86 | 95 | 208 | 100 | 88 |  |  |  |  |  |
| YARAAARQARAKALARQLGVAA [MMI-0100] |  | 131 | 108 |  |  |  |  |  |  |  |  | 73 |  |  | 127 | 98 | 94 | 79 |  |
| HRRIKAWLKKIKALARQLGVAA (Mammal) [MMI-0500] | 140 | 174 | 174 | 0 | 8 | 30 | 59 | 23 | 135 | 16 | 42 | 10 | 67 | 9 | 90 | 2 | 47 | 194 | 16 |
| KAFAKLAARLYRKALARQLGVAA [MMI-0400] | 125 | 141 | 145 | 17 | 28 | 14 | 76 | 16 | 93 | 38 | 82 | 0 | 81 | 58 | 59 | 11 | 91 | 143 | 84 |
| FAKLAARLYRKALARQLGVAA [MMI-0300] | 145 | 147 | 140 | 10 | 32 | 26 | 70 | 20 | 91 | 46 | 81 |  | 82 | 54 | 79 | 19 | 74 | 126 | 69 |
